We go through three molecules from patent publication US20190142971A1, “FORMULATION AND DELIVERY OF MODIFIED NUCLEOSIDE, NUCLEOTIDE, AND NUCLEIC ACID COMPOSITIONS” (ModernaTX, Inc., priority 2013, published 2019).

Like-named read-outs stand apart in the source and are kept apart here.

One series deals with Balb-C mice. The series is described as follows: Example 117: repeat dose luciferase KC2 LNP IM, IV, live and tissue imaging (Tables 192-200). Type of series: in vivo. The following applies: luciferase mRNA in PBS, IM 2.50 mg/kg. The method, then: “TM-2” means the groups were administered with 2 doses, administered 24 hours apart, “IV” means intravenous administration, “TV-1” means the groups were administered a single dose tail vein injection and “TV-2” means the groups were administered with 2 doses, administered 7 days apart. 2 groups of untreated Balb-C mice (n=3) were also evaluated. Groups 1, 3 and 7 were injected in the right leg and administration was repeated but into the left leg with 24 hours between injections. Groups 2, 4, and 9 were administered the mRNA in the right leg followed by repeat administration in the right leg with 24 hours between injections for Group 2 and 7 days between injections for Groups 4 and 9.
The final lipid molar ratio ranges of DLin-KC2-DMA, DSPC, cholesterol and PEG-DMG for the KC2 LNP are outlined in Table 194. The weight ratio of total lipid to mRNA was 20:1, the mean size was 95 nm (PDI: 0.11), the zeta at pH 7.4 was −1.0 mV and the encapsulation (RiboGreen) was essentially 100%.
Live imaging mice were imaged at 8 hours post-administration of each dose of luciferase modified mRNA and tissue imaging mice imaged 8 post-administration of the final dose of luciferase modified mRNA. Twenty minutes prior to imaging, the mice were injected intraperitoneally with a D-luciferin solution at 150 mg/kg. Animals were then anesthetized and images were acquired with an IVIS Lumina II imaging system (Perkin Elmer). For the tissue imaging mice (Groups 6-9), the mice were dissected twenty minutes after the D-luciferin injection and organs and tissue were subsequently imaged (muscle around injection site, liver and spleen for Groups 6 and 7 and were subsequently imaged the liver and spleen for Groups 8 and 9). Bioluminescence was measured as total flux (photons/second) of the mid-section and the entire mouse (IV administration), the injection site (IM administration), or the entire organ (tissue imaging).

The test system of series [1] is mice. Nature of the series: Example 39: Factor IX mmRNA IM in mice, serum Factor IX at 13 hours. Type of series: in vivo. The following applies: 2×100 ug/mouse IM. The procedure:
Human Factor IX mmRNA (Gen1; fully modified 5-methycytosine and pseudouridine) formulated in formulation buffer was delivered to mice via intramuscular injection.
The mice were bled at 13 hours after the intramuscular injection to determine the concentration of human the polypeptide in serum in pg/mL.

The test system of a further series is BALB/C mice. Nature of the series: Example 59: G-CSF mRNA IM in mice, serum human G-CSF and mouse IFN-alpha ELISA (Table 93). Type of series: in vivo.
The next series deals with C57/BL6 mice. Nature of the series: Example 32B: human G-CSF lipoplex IM, SC, IV in mice, serum G-CSF ELISA at 6 hours (Table 56). In kind it is in vivo. The following applies: serum 6 hours after administration. The procedure:
6 hours after administration of a formulation, serum was collected from each mouse to measure the amount of human G-CSF protein in the mouse serum by human G-CSF ELISA and the results are shown in Table 56.

In series [2] the test system is mice. Particulars: for Serum Concentration 8-12 hours after administration: G-CSF; for G-CSF Protein Expression, Conc: LNP IV, mice, 8 hrs.
Series [3] in a line: Example 61: storage stability of G-CSF mRNA, gel electrophoresis (Bio-Rad EXPERION). In kind it is physicochemical. The procedure: Stability experiments were conducted to obtain a better understanding of storage conditions to retain the integrity of modified RNA. […] After the mRNA had been stored for 0 hours, 2 hours, 6 hours, 24 hours, 48 hours, 5 days and 14 days, the mRNA was analyzed by gel electrophoresis using a Bio-Rad EXPERION™ system. The modified, unmodified and lipoplexed G-CSF mRNA was also stored in RNASTABLE® (Biomatrica, Inc. San Diego, Calif.) at 40° C. or water at −80° C. or 40° C. for 35 days before being analyzed by gel electrophoresis.
mRNA samples stored at 4° C., 25° C. and 37° C. were stored in 1×TE buffer or the formulation buffer (150 mM sodium chloride, 2 mM calcium chloride, 2 mM phosphate, 0.5 mM EDTA at a pH of 6.5). The mRNA stored at 4° C. was stable to at least 60 days in both the TE and formulation buffer. At 25° C. the mRNA in formulation buffer was stable out to 14 days and the TE buffer was stable out to at least 6 days. Storage of mRNA in the formulation buffer at 37° C. was stable to 6 days compared to the TE buffer which was stable only until 4 days.

Series [4] has as its system peripheral blood mononuclear cells (PBMC). Nature of the series: Example 56: PBMC IFN-alpha and TNF-alpha ELISA and protein/cytokine ratio (Tables 86, 87). Type of series: cell-based, human. The procedure:
480 ng of G-CSF mRNA modified with 5-methylcytosine (5mC) and pseudouridine (pseudoU) or unmodified G-CSF mRNA was transfected with 0.4 uL of Lipofectamine 2000 into peripheral blood mononuclear cells (PBMC) from three normal blood donors (D1, D2, and D3). […] The supernatant was harvested and run by ELISA 22 hours after transfection to determine the protein expression. The expression of IFN-alpha and TNF-alpha may be a secondary effect from the transfection of the G-CSF mRNA.
As mentioned above, using PBMC as an in vitro assay system it is possible to establish a correlation between translation (in this case G-CSF protein production) and cytokine production (in this case exemplified by IFN-alpha protein production). Better protein production is correlated with lower induction of innate immune activation pathway, and the percentage modification of a chemistry can be judged favorably based on this ratio (Table 87).

Series [5] deals with C57BL/6. The series is described as follows: Example 115 (second): human EPO mRNA in mannitol multi-dose, serum EPO (Table 187). In kind it is in vivo, mice. The following applies: IM 2.5 mg/kg per dose. The method, then:
Serum was collected from the mice 24 hours post the second, fourth, sixth and eighth doses.

The test system of series [6] is C57BL/6. Nature of the series: Example 114: mouse EPO mRNA electroporation multi-dose, serum EPO (Tables 183, 184). Type of series: in vivo, mice. Particulars: mouse EPO mRNA in PBS, IM 0.2 mg/kg per dose with EP. The procedure:
Serum was collected from the mice at 24 hours post the first, second, third and fourth doses.

Setting [7] is: I.M., 200 ug/mouse (R848 75 ug/mouse), 50 ul, 8 hours after dosing.
Setting [8] is: serum 24 hours post fourth dose.
Where [9] appears, read: serum 24 hours post second dose.

Take “Luciferase: luciferase mRNA, SEQ ID NO: 14, Cap1, fully modified with 5-methylcytosine and pseudouridine”: the “Expression (Flux (p/s))” value in the series on Balb-C mice (Dose 1, Dosed Right limb) worked out at 6.71E+06 p/s; in the series on Balb-C mice (Dose 1, Undosed Left limb) it was 2.28E+05 p/s; with Balb-C mice (Dose 2, Dosed Left limb), 1.16E+07 p/s; with Balb-C mice (Dose 2, Undosed Right limb), 2.44E+07 p/s. Moreover, the “Factor IX in serum” value with mice [1] is reported as “less than 100 pg/mL”.

B1: G-CSF: modified mRNA encoding human G-CSF, SEQ ID NO: 4, Cap1, fully modified with 5-methylcytosine and pseudouridine; LNP-formulated in Examples 16-22 (nucleic acid)
chain: GGGAAAUAAGAGAGAAAAGAAGAGUAAGAAGAAAUAUAAGAGCCACCAUGGCCGGUCCCGCGACCCAAAGCCCCAUGAAACUUAUGGCCCUGCAGUUGCUGCUUUGGCACUCGGCCCUCUGGACAGUCCAAGAAGCGACUCCUCUCGGACCUGCCUCAUCGUUGCCGCAGUCAUUCCUUUUGAAGUGUCUGGAGCAGGUGCGAAAGAUUCAGGGCGAUGGAGCCGCACUCCAAGAGAAGCUCUGCGCGACAUACAAACUUUGCCAUCCCGAGGAGCUCGUACUGCUCGGGCACAGCUUGGGGAUUCCCUGGGCUCCUCUCUCGUCCUGUCCGUCGCAGGCUUUGCAGUUGGCAGGGUGCCUUUCCCAGCUCCACUCCGGUUUGUUCUUGUAUCAGGGACUGCUGCAAGCCCUUGAGGGAAUCUCGCCAGAAUUGGGCCCGACGCUGGACACGUUGCAGCUCGACGUGGCGGAUUUCGCAACAACCAUCUGGCAGCAGAUGGAGGAACUGGGGAUGGCACCCGCGCUGCAGCCCACGCAGGGGGCAAUGCCGGCCUUUGCGUCCGCGUUUCAGCGCAGGGCGGGUGGAGUCCUCGUAGCGAGCCACCUUCAAUCAUUUUUGGAAGUCUCGUACCGGGUGCUGAGACAUCUUGCGCAGCCGUGAAGCGCUGCCUUCUGCGGGGCUUGCCUUCUGGCCAUGCCCUUCUUCUCUCCCUUGCACCUGUACCUCUUGGUCUUUGAAUAAAGCCUGAGUAGGAAG
modifications: Cap1, 5-methylcytosine, pseudouridine
As to B1, the “G-CSF protein (human, serum)” value with BALB/C mice (setting [7]) stood at 356.5 pg/mL. For the same molecule, the “IFN-alpha expression (mouse, serum)” value in the series on BALB/C mice (setting [7]) was determined as 8.87 pg/mL. Also, the “PC Ratio (Protein: Cytokine Ratio)” value in the series on BALB/C mice (I.M., 200 ug/mouse (R848 75 ug/mouse), 8 hours after dosing) is recorded as 40. Also, the “mouse IFN-alpha in the serum (cytokine response)” value in the series on BALB/C mice (IM, 8 hours) is given as “low but detectable cytokine response”. The “Human G-CSF in Serum” value with C57/BL6 mice (I.M., 100 μg) is 85.6 pg/mL; in the series on C57/BL6 mice (I.V., 100 μg (Luc-unsp 150 μg)), 31.0 pg/mL; in the series on C57/BL6 mice (S.C., 100 μg) it was 3.9 pg/mL. Further, the “Serum Concentration 8-12 hours after administration” value with mice [2] (IM, 100 ug) was around 20 to 80 pg/mL; in the series with mice [2] (IV (LNP), 1 ug) it was ~20,000 pg/ml; with mice [2] (IV (LNP), 10 ug) it was ~1,000,000 pg/ml; in the series on mice [2] (IV (LNP), 100 ug), ~5,000,000 pg/ml; in the series on mice [2] (IV (Lipoplex), 100 ug) it was around 30 pg/mL; with mice [2] (SC, 100 ug) it was around 10 to 40 pg/mL. Besides, the entries for the “G-CSF Protein Expression, Conc” value in the series on mice [2] (dose 10 ug) and in the series on mice [2] (dose 100 ug) were 1204.82 ng/mL and 4722.20 ng/mL, respectively. This molecule gave a freeze/thaw cycles tolerated in series [3] of 12 cycles. The “stable out to” value was 120 h in [3] (stored at 25° C., with or without lipoplex); 24 h in series [3] (stored at 37° C.); 6 h in series [3] (stored at 50° C.). Moreover, the entries for the “protein/cytokine ratio vs natural G-CSF mRNA” value in series [4] (IFN-alpha) and in series [4] (TNF-alpha) were 100 fold and 27 fold, respectively.

B2: EPO: modified mRNA encoding human erythropoietin, SEQ ID NO: 7, Cap1, fully modified with 5-methylcytosine and pseudouridine; LNP NPA-060-1 in Examples 17-22 (nucleic acid)
chain: GGGAAAUAAGAGAGAAAAGAAGAGUAAGAAGAAAUAUAAGAGCCACCAUGGGAGUGCACGAGUGUCCCGCGUGGUUGUGGUUGCUGCUGUCGCUCUUGAGCCUCCCACUGGGACUGCCUGUGCUGGGGGCACCACCCAGAUUGAUCUGCGACUCACGGGUACUUGAGAGGUACCUUCUUGAAGCCAAAGAAGCCGAAAACAUCACAACCGGAUGCGCCGAGCACUGCUCCCUCAAUGAGAACAUUACUGUACCGGAUACAAAGGUCAAUUUCUAUGCAUGGAAGAGAAUGGAAGUAGGACAGCAGGCCGUCGAAGUGUGGCAGGGGCUCGCGCUUUUGUCGGAGGCGGUGUUGCGGGGUCAGGCCCUCCUCGUCAACUCAUCACAGCCGUGGGAGCCCCUCCAACUUCAUGUCGAUAAAGCGGUGUCGGGGCUCCGCAGCUUGACGACGUUGCUUCGGGCUCUGGGCGCACAAAAGGAGGCUAUUUCGCCGCCUGACGCGGCCUCCGCGGCACCCCUCCGAACGAUCACCGCGGACACGUUUAGGAAGCUUUUUAGAGUGUACAGCAAUUUCCUCCGCGGAAAGCUGAAAUUGUAUACUGGUGAAGCGUGUAGGACAGGGGAUCGCUGAUAAGCUGCCUUCUGCGGGGCUUGCCUUCUGGCCAUGCCCUUCUUCUCUCCCUUGCACCUGUACCUCUUGGUCUUUGAAUAAAGCCUGAGUAGGAAG
modifications: Cap1, 5-methylcytosine, pseudouridine
Consider B2, for which the “Eighth Dose EPO” value with C57BL/6 [5] (serum 24 hours post eighth dose) is 7.9 pg/mL. Further, the figures for the “Fourth Dose EPO” value with C57BL/6 [5] (setting [8]) and with C57BL/6 [6] (setting [8]) were 44.3 pg/mL and 258.1 pg/mL, respectively. In addition, the “Second Dose EPO” value stood at 43.5 pg/mL with C57BL/6 [5] (setting [9]) and 357.8 pg/mL with C57BL/6 [6] (setting [9]). Also, the “Sixth Dose EPO” value in the series on C57BL/6 [5] (serum 24 hours post sixth dose) was determined as 46.3 pg/mL. In addition, the “First Dose EPO” value with C57BL/6 [6] (serum 24 hours post first dose) is 151.9 pg/mL. The “Third Dose EPO” value with C57BL/6 [6] (serum 24 hours post third dose) was found to be 898.5 pg/mL.
